Assay results taken from patent US20130309230A1 (published 2013).

Key:
AA, + MMP-9 = assay: SPR; + MMP-9 (activated AA)
AA, - MMP-9 = assay: SPR; - MMP-9 (uncleaved, masked AA)

B1: VEGF (ligand)
chain: APMAEGGGQNHHEVVKFMDVYQRSYCHPIETLVDIFQEYPDEIEYIFKPSCVPLMRCGGCCNDEGLECVPTEESNITMQIMRIKPHQGQHIGEMSFLQHNKCECRPKKDRARQENPCGPCSERRKHLFVQDPQTCKCSCKNTDSRCKARQLELNERTCRCDKPRR
With B1 the Kd (AA, + MMP-9) was 0.35 nM and the Kd (AA, - MMP-9) was > 200 nM.
